The source of these data is US20250313635A1 (Merck Sharp & Dohme, published 2025).

Assay [1] has as its target T1, recombinant human αvβ8 integrin extracellular domains (human, UniProt P06756 1-992; P26012 1-684, Biotinylated on the Avitag (tag not in the letters); interchain disulfide between the coiled-coils (not in the letters).).
T1 construct: Soluble heterodimer co-expressed in Expi293 cells; also called hαvβ8
The assay is described as follows: AlphaLISA blocking of human LAP binding. A general note: Bead proximity is the source of the signal in Alpha formats.

The target in assay [2] is T2, recombinant human αvβ6 integrin extracellular domains (human, UniProt P06756 1-992; P18564 1-709, Biotinylated on the Avitag (tag not in the letters); interchain disulfide between the coiled-coils (not in the letters).).
T2 construct: Soluble heterodimer co-expressed in Expi293 cells; also called hαvβ6
The assay is described as follows: AlphaLISA blocking of human LAP binding.

Assay [3] deals with T3, recombinant mouse αvβ1 integrin extracellular domains (mouse, UniProt P43406 1-988; P09055 1-728, Biotinylated on the Avitag (tag not in the letters); interchain disulfide between the coiled-coils (not in the letters).).
T3 construct: Soluble heterodimer co-expressed in Expi293 cells; also called mαvβ1
T3 sequence (P43406 31-988 limits assumed, form in doubt, chain 1 of 2): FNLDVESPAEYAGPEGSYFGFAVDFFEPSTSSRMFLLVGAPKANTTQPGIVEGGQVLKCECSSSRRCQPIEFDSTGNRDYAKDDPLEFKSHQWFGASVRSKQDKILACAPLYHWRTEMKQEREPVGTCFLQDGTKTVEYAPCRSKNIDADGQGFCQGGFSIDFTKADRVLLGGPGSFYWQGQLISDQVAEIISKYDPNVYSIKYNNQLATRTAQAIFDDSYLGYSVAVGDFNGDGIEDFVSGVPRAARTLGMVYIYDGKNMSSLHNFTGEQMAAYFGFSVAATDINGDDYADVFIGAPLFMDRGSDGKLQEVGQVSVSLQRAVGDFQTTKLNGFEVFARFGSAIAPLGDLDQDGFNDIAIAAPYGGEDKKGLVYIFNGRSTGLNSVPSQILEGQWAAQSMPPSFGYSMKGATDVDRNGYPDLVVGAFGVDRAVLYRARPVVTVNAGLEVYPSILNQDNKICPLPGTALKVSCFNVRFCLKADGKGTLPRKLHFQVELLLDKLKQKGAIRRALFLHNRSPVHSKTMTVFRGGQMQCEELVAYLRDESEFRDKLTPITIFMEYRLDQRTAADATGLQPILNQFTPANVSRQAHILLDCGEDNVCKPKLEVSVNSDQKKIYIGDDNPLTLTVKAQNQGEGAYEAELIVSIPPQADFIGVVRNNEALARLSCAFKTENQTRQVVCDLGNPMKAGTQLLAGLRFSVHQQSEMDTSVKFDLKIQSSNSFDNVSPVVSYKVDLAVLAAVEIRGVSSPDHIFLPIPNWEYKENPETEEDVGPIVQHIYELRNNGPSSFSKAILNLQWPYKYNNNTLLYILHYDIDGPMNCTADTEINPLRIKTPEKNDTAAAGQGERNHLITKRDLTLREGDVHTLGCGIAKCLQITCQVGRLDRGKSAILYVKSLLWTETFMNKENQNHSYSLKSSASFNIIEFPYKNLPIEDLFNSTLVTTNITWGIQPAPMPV
T3 sequence (P09055 21-728 limits assumed, form in doubt, chain 2 of 2): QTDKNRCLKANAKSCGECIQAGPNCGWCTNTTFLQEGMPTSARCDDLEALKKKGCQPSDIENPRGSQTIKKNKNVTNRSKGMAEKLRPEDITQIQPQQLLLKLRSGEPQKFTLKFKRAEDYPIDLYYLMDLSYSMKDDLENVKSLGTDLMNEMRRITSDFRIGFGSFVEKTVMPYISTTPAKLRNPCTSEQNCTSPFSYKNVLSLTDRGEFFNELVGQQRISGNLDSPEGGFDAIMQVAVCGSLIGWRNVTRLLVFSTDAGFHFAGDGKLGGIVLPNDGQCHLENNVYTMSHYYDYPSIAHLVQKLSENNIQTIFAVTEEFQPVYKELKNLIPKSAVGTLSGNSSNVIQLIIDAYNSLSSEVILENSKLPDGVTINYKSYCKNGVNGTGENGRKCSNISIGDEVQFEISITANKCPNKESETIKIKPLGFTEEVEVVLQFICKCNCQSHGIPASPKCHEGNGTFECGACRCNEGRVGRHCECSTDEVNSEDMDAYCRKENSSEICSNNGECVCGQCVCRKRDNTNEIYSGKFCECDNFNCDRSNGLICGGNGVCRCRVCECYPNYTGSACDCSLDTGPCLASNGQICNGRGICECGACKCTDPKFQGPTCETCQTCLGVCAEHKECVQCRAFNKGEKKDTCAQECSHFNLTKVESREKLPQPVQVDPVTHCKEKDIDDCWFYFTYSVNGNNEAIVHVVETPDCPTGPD
The assay is described as follows: ForteBio Octet Red (BLI). (BLI is a label-free optical method that tracks binding on a fibre tip over time.)

In assay [4] the target is T4, recombinant human αvβ1 integrin extracellular domains (human, UniProt P06756 1-992; P05556 1-728, Secreted glycoprotein heterodimer. It is biotinylated on the omitted Avitag, and an interchain disulfide sits in the omitted coiled-coils.).
T4 construct: Soluble heterodimer co-expressed in Expi293 cells; also called hαvβ1; not shown: Alpha chain: acidic coiled-coil with cysteine and GG-Avitag; Beta chain: basic coiled-coil with cysteine and GG-Avitag
The assay is described as follows: ForteBio Octet Red (BLI).

Assay [5] concerns the target T5, recombinant mouse αvβ6 integrin extracellular domains (mouse, UniProt P43406 1-988; Q9Z0T9 1-706, Biotinylated on the Avitag (tag not in the letters); interchain disulfide between the coiled-coils (not in the letters).).
T5 construct: Soluble heterodimer co-expressed in Expi293 cells; also called mαvβ6
The assay is described as follows: ForteBio Octet Red (BLI).

Assay [6] deals with T6, recombinant human αvβ3 integrin extracellular domains (human, UniProt P06756 1-992; P05106 1-718, Secreted glycoprotein heterodimer. It is biotinylated on the omitted Avitag, and an interchain disulfide sits in the omitted coiled-coils.).
T6 construct: Soluble heterodimer co-expressed in Expi293 cells; also called hαvβ3; not shown: Alpha chain: acidic coiled-coil with cysteine and GG-Avitag; Beta chain: basic coiled-coil with cysteine and GG-Avitag
The assay is described as follows: ForteBio Octet Red (BLI).

The target of assay [7] is mouse αvβ5 integrin on CHOK1 stable cells (mouse, UniProt P43406 31-1044; O70309 24-798). The assay is described as follows: cell-based or functional assay.
In assay [8] the target is human αvβ8 integrin on CHOK1 stable cells (human, UniProt P06756 31-1048; P26012 43-769). The assay is described as follows: cell-based or functional assay.
Assay [9] concerns the target mouse αvβ6 integrin on CHOK1 stable cells (mouse, UniProt P43406 31-1044; Q9Z0T9 22-787). The assay is described as follows: cell-based or functional assay.
Assay [10] concerns the target mouse αvβ1 integrin on CHOK1 stable cells (mouse, UniProt P43406 31-1044; P09055 21-798). The assay is described as follows: cell-based or functional assay.
In assay [11] the target is mouse αvβ8 integrin on CHOK1 stable cells (mouse, UniProt P43406 31-1044; Q0VBD0 22-767). The assay is described as follows: cell-based or functional assay.
Assay [12] has as its target human αvβ6 integrin on CHOK1 stable cells (human, UniProt P06756 31-1048; P18564 22-788). The assay is described as follows: cell-based or functional assay.
For assay [13], the target named is mouse αvβ3 integrin on CHOK1 stable cells (mouse, UniProt P43406 31-1044; O54890 26-787). The assay is described as follows: cell-based or functional assay.
For assay [14], the target named is human αvβ1 integrin on CHOK1 stable cells (human, UniProt P06756 31-1048; P05556 21-798). The assay is described as follows: cell-based or functional assay.
For assay [15], the target named is T3, recombinant mouse αvβ1 integrin …. The assay is described as follows: ForteBio Octet Red (BLI); upper end tied to Ab-31 and mαvβ1 by Table 13.
Assay [16] has the same target. The assay is described as follows: AlphaLISA blocking of mouse fibronectin binding. On the procedure: (§1) Briefly, the testing antibody (8 μL) was added as a 4×(of Final testing concentration) solution in the HEPES buffer described previously into a 384w AlphaPlate™ (Perkin Elmer #6005350). Then the integrin and ligand were added sequentially as 8×(4 μL each). Plates were sealed and incubated at room temperature for two hours. Then 4×acceptor bead solution ([…]) was added, and the plates were resealed and incubated at room temperature (RT) for one hour. Finally, 4×([…]) donor beads solution was added in a darkened room and incubated for 45 minutes at room temperature. Plates were read on the Envision (Perkin Elmer) in AlphaScreen™ mode within three hours of donor bead addition.

For assay [17], the target named is T5, recombinant mouse αvβ6 integrin …. The assay is described as follows: ForteBio Octet Red (BLI); lower end tied to Ab-33 and mαvβ6 by Table 13.
Assay [18] has as its target T7, recombinant mouse αvβ5 integrin extracellular domains (mouse, UniProt P43406 1-988; O70309 1-719, Biotinylated on the Avitag (tag not in the letters); interchain disulfide between the coiled-coils (not in the letters).).
T7 construct: Soluble heterodimer co-expressed in Expi293 cells; also called mαvβ5
The assay is described as follows: AlphaLISA blocking of mouse vitronectin binding. On the procedure:
as §1

T5 sequence (P43406 31-988 limits assumed, form in doubt, chain 1 of 2): as the sequence (P43406 31-988 limits assumed, form in doubt, chain 1 of 2) above
T5 sequence (Q9Z0T9 22-706 limits assumed, form in doubt, chain 2 of 2): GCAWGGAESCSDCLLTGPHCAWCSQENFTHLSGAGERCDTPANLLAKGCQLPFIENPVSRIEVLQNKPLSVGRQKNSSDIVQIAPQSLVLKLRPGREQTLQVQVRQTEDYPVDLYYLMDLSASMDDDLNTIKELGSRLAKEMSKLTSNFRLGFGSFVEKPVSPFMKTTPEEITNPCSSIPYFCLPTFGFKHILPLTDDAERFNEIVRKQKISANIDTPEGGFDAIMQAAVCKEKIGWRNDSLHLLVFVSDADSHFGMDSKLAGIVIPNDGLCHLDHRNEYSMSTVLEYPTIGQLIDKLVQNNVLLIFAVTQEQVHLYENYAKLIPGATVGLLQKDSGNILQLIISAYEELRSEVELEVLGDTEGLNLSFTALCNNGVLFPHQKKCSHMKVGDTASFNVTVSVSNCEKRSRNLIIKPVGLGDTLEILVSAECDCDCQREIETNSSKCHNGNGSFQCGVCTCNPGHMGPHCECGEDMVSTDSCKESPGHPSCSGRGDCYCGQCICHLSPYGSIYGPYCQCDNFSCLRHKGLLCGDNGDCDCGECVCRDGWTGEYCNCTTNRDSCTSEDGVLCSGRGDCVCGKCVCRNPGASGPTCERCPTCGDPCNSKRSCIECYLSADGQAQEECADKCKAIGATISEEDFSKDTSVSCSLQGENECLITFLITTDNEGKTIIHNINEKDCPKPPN
Sequence of mouse αvβ1 integrin on CHOK1 stable cells (P43406 31-1044, chain 1 of 2): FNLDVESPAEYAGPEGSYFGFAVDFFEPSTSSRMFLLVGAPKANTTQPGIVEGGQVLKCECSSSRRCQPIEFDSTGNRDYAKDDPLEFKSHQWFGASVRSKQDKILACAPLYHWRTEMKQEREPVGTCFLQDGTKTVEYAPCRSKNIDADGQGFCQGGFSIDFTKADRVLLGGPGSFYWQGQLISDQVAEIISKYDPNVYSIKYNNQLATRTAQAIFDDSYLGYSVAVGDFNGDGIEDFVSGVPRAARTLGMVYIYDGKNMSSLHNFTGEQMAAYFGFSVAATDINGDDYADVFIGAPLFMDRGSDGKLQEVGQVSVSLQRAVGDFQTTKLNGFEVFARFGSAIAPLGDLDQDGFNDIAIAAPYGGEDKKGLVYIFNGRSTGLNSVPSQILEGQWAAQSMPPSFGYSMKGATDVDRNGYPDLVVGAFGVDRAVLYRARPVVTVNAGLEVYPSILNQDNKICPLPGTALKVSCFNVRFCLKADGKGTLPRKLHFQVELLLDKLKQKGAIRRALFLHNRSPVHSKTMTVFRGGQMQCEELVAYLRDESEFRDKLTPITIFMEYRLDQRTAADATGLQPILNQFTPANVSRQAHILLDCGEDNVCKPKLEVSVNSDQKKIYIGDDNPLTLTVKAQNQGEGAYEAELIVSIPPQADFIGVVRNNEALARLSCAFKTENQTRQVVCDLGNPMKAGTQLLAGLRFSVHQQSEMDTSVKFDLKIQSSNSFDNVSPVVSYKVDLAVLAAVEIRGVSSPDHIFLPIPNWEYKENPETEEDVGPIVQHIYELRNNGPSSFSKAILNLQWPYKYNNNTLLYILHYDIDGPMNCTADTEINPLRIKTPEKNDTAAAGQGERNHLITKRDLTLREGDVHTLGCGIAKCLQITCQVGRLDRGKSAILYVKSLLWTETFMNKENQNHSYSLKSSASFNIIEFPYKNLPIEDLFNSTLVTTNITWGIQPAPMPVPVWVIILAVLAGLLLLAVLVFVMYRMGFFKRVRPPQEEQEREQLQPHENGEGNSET
Sequence of mouse αvβ1 integrin on CHOK1 stable cells (P09055 21-798, chain 2 of 2): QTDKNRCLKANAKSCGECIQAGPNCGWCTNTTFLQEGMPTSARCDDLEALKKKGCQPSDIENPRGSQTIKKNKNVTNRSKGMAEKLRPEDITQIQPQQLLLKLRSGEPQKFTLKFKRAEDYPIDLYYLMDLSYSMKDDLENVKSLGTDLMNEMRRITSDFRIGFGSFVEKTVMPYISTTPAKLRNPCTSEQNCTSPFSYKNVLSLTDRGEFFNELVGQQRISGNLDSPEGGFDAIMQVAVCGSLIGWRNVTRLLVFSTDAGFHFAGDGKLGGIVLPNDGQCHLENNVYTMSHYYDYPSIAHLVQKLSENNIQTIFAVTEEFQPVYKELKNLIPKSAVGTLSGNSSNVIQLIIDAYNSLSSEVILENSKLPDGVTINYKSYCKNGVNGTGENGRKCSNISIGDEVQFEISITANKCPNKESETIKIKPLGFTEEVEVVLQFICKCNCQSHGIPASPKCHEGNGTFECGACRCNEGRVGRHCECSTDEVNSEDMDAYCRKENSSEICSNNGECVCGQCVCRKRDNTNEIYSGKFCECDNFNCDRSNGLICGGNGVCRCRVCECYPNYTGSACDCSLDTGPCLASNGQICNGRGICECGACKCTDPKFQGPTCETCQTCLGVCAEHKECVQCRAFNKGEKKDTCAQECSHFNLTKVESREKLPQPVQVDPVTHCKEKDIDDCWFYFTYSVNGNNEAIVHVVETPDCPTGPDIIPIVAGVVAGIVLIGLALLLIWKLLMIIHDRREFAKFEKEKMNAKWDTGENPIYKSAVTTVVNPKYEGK
T7 sequence (P43406 31-988 limits assumed, form in doubt, chain 1 of 2): as the sequence (P43406 31-988 limits assumed, form in doubt, chain 1 of 2) above
T7 sequence (O70309 24-719 limits assumed, form in doubt, chain 2 of 2): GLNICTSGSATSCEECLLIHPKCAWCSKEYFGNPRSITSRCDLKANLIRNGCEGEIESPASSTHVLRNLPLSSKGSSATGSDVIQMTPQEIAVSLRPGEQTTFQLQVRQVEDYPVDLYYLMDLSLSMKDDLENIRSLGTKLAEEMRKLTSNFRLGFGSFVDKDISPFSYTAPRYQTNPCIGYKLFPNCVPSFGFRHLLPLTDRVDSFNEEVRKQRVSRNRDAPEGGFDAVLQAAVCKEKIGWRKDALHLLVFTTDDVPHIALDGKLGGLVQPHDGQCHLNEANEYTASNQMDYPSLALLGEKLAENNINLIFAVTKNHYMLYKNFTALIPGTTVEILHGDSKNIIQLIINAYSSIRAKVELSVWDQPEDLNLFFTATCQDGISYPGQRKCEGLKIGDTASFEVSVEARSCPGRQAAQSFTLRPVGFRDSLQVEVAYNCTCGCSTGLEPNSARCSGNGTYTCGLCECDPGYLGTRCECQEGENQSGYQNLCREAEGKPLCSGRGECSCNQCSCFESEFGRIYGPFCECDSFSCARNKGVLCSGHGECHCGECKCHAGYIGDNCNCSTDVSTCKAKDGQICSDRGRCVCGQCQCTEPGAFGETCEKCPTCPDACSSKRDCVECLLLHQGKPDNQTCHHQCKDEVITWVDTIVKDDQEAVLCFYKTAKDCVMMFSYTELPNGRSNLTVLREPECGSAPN

B1: Ab-31 (antibody, V domains shown)
VH: EVQLQESGPGLVKPSETLSLTCAVSGYSISSGYYWGWIRQPPGKGLEWIGSIYHSGNTYYNPSLKSRVTISVDTSKNQFSLKLSSVTAADTAVYYCARVPRYSRGDAYYYYGMDVWGQGTTVTVSS
VL: DIQMTQSPSTLSASVGDRVTITCRASQSIGSWLAWYQQKPGKAPKLLIYKASSLESGVPSRFSGSGSGTEFTLTISSLQPDDFATYYCQQSGPYPWTFGGGTKVEIK
On to B1, for which the IC50 (as a rule, the point on the concentration scale where inhibition reaches its midpoint) in assay [1] was 47.8 nM; in assay [2] it was 30.9 nM; in [16] it was 6.6 nM. Further, the Kd (usually the equilibrium constant for the complex coming apart) in assay [3] is 48.4 nM; in assay [4], 14 nM; in assay [5] it was 2.9 nM; in assay [6], 6.47 nM; in assay [15], 2 to 48 nM. Besides, the “IC50 of inhibition of adhesion of CHOK1-mαvβ5 cells to vitronectin matrix” value in assay [7] came out at 5.6 nM. Moreover, the “IC50 of latent TGFβ activation (PAI-1 luciferase, TMLC and CHOK1-integrin co-culture)” value amounted to 3.9 nM in [8]; 3.1 nM in [9]; 7.5 nM in assay [10]; 13.5 nM in assay [11]; 19.1 nM in assay [12]; 6.1 nM in [14]. Further, the “IC50 of inhibition of adhesion of CHOK1-α5KO-mαvβ1 cells to fibronectin matrix” value in assay [10] amounted to 1.5 nM. In addition, the “IC50 of inhibition of adhesion of CHOK1-mαvβ3 cells to vitronectin matrix” value in assay [13] is 1 nM.

B2: Ab-32 (antibody, V domains shown)
VH: EVQLQESGPGLVKPSETLSLTCAVSGYSISSGYYWGWIRQPPGKGLEWIGSIYHSGNTYYNPSLKSRVTISVDTSKNQFSLKLSSVTAADTAVYYCARVPRYSRGDAYYYYGMDVWGQGTTVTVSS
VL: EIVLTQSPGTLSLSPGERATLSCRASQSVRSSYLAWYQQKPGQAPRLLIYGASSRATGIPDRFSGSGSGTDFTLTISRLEPEDFAVYYCQQAGLVFTFGGGTKVEIK
Turning to B2, the IC50 in [1] was determined as 48 nM; in assay [2], 16.4 nM; in assay [16] it was 6.7 nM. Further, the Kd turned out to be 25.9 nM in assay [3], 7.4 nM in assay [4], 2.59 nM in [5] and 6.14 nM in assay [6].

B3: Ab-30 (antibody, V domains shown)
VH: EVQLQESGPGLVKPSETLSLTCAVSGYSISSGYYWGWIRQPPGKGLEWIGSIYHSGNTYYNPSLKSRVTISVDTSKNQFSLKLSSVTAADTAVYYCARVPRYSRGDAYYYYGMDVWGQGTTVTVSS
VL: DIQMTQSPSTLSASVGDRVTITCRASQSISSWLAWYQQKPGKAPKLLIYKASSLESGVPSRFSGSGSGTEFTLTISSLQPDDFATYYCQQVKIYPPYTFGGGTKVEIK
Consider B3, for which the IC50 in [1] worked out at 19.7 nM; in assay [2], 25.4 nM; in [16], 6.8 nM. Also, the Kd in assay [3] is 35 nM; in assay [4] it was 6.75 nM; in assay [5], 3.03 nM; in assay [6], 5.29 nM.

B4: Ab-33 (antibody, V domains shown)
VH: EVQLVQSGAEVKKPGSSVKVSCKASGGTFSNYAISWVRQAPGQGLEWMGGIIPIFGTANYAQKFQGRVTITADESTSTAYMELSSLRSEDTAVYYCARAPRSARGDMYYYYYGMDVWGQGTTVTVSS
VL: DIQMTQSPSTLSASVGDRVTITCRASQSIGSWLAWYQQKPGKAPKLLIYKASSLESGVPSRFSGSGSGTEFTLTISSLQPDDFATYYCQQYGRYPWTFGGGTKVEIK
For the molecule B4, the IC50 is 12.2 nM in assay [1], 7.49 nM in assay [2], 96.3 nM in [18] and 4.5 nM in [16]. The Kd is 37.7 nM in assay [3]; 12.7 nM in assay [4]; 2.45 nM in [5]; 5.07 nM in [6]; 2 to 48 nM in assay [17].

B5: Ab-29 (antibody, V domains shown)
VH: ELQLQESGPGLVKPSETLSLTCTVSGGSISSNSYYWGWIRQPPGKGLEWIGSIYYSGSTYYNPSLKSRVTISVDTSKNQFSLKLSSVTAADTAVYYCARVRRVAGRGDSYYYYYGMDVWGQGTTVTVSS
VL: DIQMTQSPSSVSASVGDRVTITCRASQGISRWLAWYQQKPGKAPKLLIYAASSLQSGVPSRFSGSGSGTDFTLTISSLQPEDFATYYCQQAISHPWTFGGGTKVEIK
Consider B5, for which the IC50 worked out at 200 nM in assay [1], 96 nM in assay [2], 17.7 nM in assay [18] and 3.4 nM in [16]. In addition, the Kd is 4.21 nM in assay [3], 2.7 nM in assay [4], 4.11 nM in [5] and 6.58 nM in [6].
